Laboratory results as given in patent US20090155236.

T1: annexin V protein
T1 chain: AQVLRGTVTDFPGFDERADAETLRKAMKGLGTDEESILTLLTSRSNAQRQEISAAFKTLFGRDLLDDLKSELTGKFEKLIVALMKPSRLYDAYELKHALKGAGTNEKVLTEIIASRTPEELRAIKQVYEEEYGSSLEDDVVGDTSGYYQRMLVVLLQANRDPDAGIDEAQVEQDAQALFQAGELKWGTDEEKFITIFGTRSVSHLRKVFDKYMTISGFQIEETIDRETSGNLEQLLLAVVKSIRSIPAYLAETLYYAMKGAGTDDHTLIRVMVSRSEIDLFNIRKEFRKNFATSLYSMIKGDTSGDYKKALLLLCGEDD

B1: purified full-length epsilon PKC (protein)
chain: MVVFNGLLKIKICEAVSLKPTAWSLRHAVGPRPQTFLLDPYIALNVDDSRIGQTATKQKTNSPAWHDEFVTDVCNGRKIELAVFHDAPIGYDDFVANCTIQFEELLQNGSRHFEDWIDLEPEGRVYVIIDLSGSSGEAPKDNEERVFRERMRPRKRQGAVRRRVHQVNGHKFMATYLRQPTYCSHCRDFIWGVIGKQGYQCQVCTCVVHKRCHELIITKCAGLKKQETPDQVGSQRFSVNMPHKFGIHNYKVPTFCDHCGSLLWGLLRQGLQCKVCKMNVHRRCETNVAPNCGVDRIAKVLADLGVTPDKITNSGQRRKKLIAGAESPQPASGSSPSEEDRSKSAPTSPCDQEIKELENNIRKALSFDNRGEEHRAASSPDGQLMSPGENGEVRQGQAKRLGLDEFNFIKVLGKGSFGKVMLAELKGKDEVYAVKVLKKDVILQDDDVDCTMTEKRILALARKHPYLTQLYCCFQTKDRLFFVMEYVNGGDLMFQIQRSRKFDEPRSRFYAAEVTSALMFLHQHGVIYRDLKLDNILLDAEGHCKLADFGMCKEGILNGVTTTTFCGTPDYIAPEILQELEYGPSVDWWALGVLMYEMMAGQPPFEADNEDDLFESILHDDVLYPVWLSKEAVSILKAFMTKNPHKRLGCVASQNGEDAIKQHPFFKEIDWVLLEQKKIKPPFKPRIKTKRDVNNFDQDFTREEPVLTLVDEAIVKQINQEEFKGFSYFGEDLMP
B2: recombinant full-length delta PKC (protein)
chain: MAPFLRISFNSYELGSLQVEDEASQPFCAVKMKEALSTERGKTLVQKKPTMYPEWKTTFDAHIYEGRVIQIVLMRAAEDPVSEVTVGVSVLAERCKKNNGKAEFWLDLQPQAKVLMCVQYFLEDGDCKQSMRSEEEAKFPTMNRRGAIKQAKIHYIKNHEFIATFFGQPTFCSVCKEFVWQKQGYKCRQCNAAIHKKCIDKIIGRCTGTATNSRDTIFQKERFNIDMPHRFKVYNYMSPTFCDHCGSLLWGLVKQGLKCEDCGMNVHHKCREKVANLCGINQKLLAEALNQVTQRSSRKLDTTESVGIYQGFEKKPEVSGSDILDNNGTYGKIWEGSTRCTLENFTFQKVLGKGSFGKVLLAELKGKDKYFAIKCLKKDVVLIDDDVECTMVEKRVLALAWESPFLTHLICTFQTKDHLFFVMEFLNGGDLMFHIQDKGRFELYRATFYAAEIICGLQFLHSKGIIYRDLKLDNVMLDRDGHIKIADFGMCKENIFGEGRASTFCGTPDYIAPEILQGLKYSFSVDWWSFGVLLYEMLIGQSPFHGDDEDELFESIRVDTPHYPRWITKESKDIMEKLFERDPDKRLGVTGNIRIHPFFKTINWSLLEKRKVEPPFKPKVKSPSDYSNFDPEFLNEKPQLSFSDKNLIDSMDQEAFHGFSFVNPKFEQFLDI

Molecular target: T1, annexin V protein

Protein | histone phosphorylation in an in vitro kinase reaction (SDS-PAGE, autoradiography)
B1 | annexin V does not increase the activity of epsilon PKC
B2 | The addition of annexin V to delta PKC in the presence of PS/DAG (Lane 3) increases the catalytic activity of delta PKC
